Source: publication PMC9728973

Assays:
[1] = target: prefusion stabilized SARS-CoV-2 S-protein trimer (SARS-CoV-2) (UniProt P0DTC2); assay: ELISA
[2] = target: wild-type (WT) SARS-CoV-2 S-protein trimer (SARS-CoV-2) (UniProt P0DTC2); assay: ELISA
[3] = target: wild-type (WT) SARS-CoV-2 S-protein trimer (SARS-CoV-2) (UniProt P0DTC2)
Fc-Li-PD (human) = Fc-Li-PD (human) (UniProt Q9BYF1); assay: BLI
PD-CLD-Fc (human) = PD-CLD-Fc (human) (UniProt Q9BYF1); assay: BLI
PD-Fc (human) = PD-Fc (human) (UniProt Q9BYF1); assay: BLI
PD-Li-Fc (human) = PD-Li-Fc (human) (UniProt Q9BYF1); assay: BLI

Substance: PD-CLD-Fc (from UniProt Q9BYF1 18-740) (Fc fusion)
- IC50 [1]: 10 nM
- IC50 [2]: 0.1 nM

Substance: PD-Fc (from UniProt Q9BYF1 18-615) (Fc fusion)
- IC50 of neutralisation: infection of ACE2-transduced HEK293T cells by SARS-CoV-2 pseudotyped VSV particles (luciferase); S protein on the pseudovirus with cell-surface ACE2 [3]: 12 nM

Substance: PD-Li-Fc (from UniProt Q9BYF1 18-615) (Fc fusion)
- IC50 of neutralisation: infection of ACE2-transduced HEK293T cells by SARS-CoV-2 pseudotyped VSV particles (luciferase); S protein on the pseudovirus with cell-surface ACE2 [3]: 12 nM

Substance: S1 monomer (BLI of Fig. 3B) (domain or fragment)
- Kd (Fc-Li-PD (human)): 45 nM
- Kd (PD-CLD-Fc (human)): 11 nM
- ratio of the KD for S1 monomer to the KD for S-protein trimer (PD-Fc (human)): 3 fold
- ratio of the KD for S1 monomer to the KD for S-protein trimer (PD-Li-Fc (human)): 3 fold
